Measured values: PMC10466376

Experiments:
Experiment in all cases: potentiometry
[1] = molecular target: Cterm29 (position 29, KGGKAH-----); details: 298 K; 0.1 M NaClO4; none (4 mM HClO4 / 100 mM NaClO4); metal-free peptide, 0.5 mM, disordered
[2] = molecular target: Nterm1 (position 1, -----HNKQEG); details: 298 K; 0.1 M NaClO4; none (4 mM HClO4 / 100 mM NaClO4); metal-free peptide, 0.5 mM, disordered
Glu5 (position 5, -…) = details: 298 K; 0.1 M NaClO4; none (4 mM HClO4 / 100 mM NaClO4); metal-free peptide, 0.5 mM, disordered
[3] = molecular target: Glu3 (position 3, ---KQEGRDHD); details: 298 K; 0.1 M NaClO4; none (4 mM HClO4 / 100 mM NaClO4); metal-free peptide, 0.5 mM, disordered
[4] = molecular target: Nterm1 (position 1, -----KQEGRD); details: 298 K, 0.1 M NaClO4, none (4 mM HClO4 / 100 mM NaClO4)
[5] = molecular target: Lys1 (position 1, -----KQEGRD); details: 298 K; 0.1 M NaClO4; none (4 mM HClO4 / 100 mM NaClO4); Zn(II)-bound peptide, mononuclear complex, Zn:peptide 1:1 (supplement captions state 0.9:1), peptide 0.5 mM
Lys11 (position 11, …-) = details: 298 K; 0.1 M NaClO4; none (4 mM HClO4 / 100 mM NaClO4); Zn(II)-bound peptide, mononuclear complex, Zn:peptide 1:1 (supplement captions state 0.9:1), peptide 0.5 mM
Lys9 (position 9, …) = details: 298 K; 0.1 M NaClO4; none (4 mM HClO4 / 100 mM NaClO4); Zn(II)-bound peptide, mononuclear complex, Zn:peptide 1:1 (supplement captions state 0.9:1), peptide 0.5 mM
[6] = molecular target: Cterm15 (position 15, SKGHFH-----); details: 298 K; 0.1 M NaClO4; none (4 mM HClO4 / 100 mM NaClO4); metal-free peptide, 0.5 mM, disordered
[7] = metal-free peptide, 0.5 mM, disordered

Protein | pKa [1] | pKa [2] | pKa (Glu5 (position 5, -…)) | pKa [3] | pKa [4, 7] | pKa [5] | pKa (Lys11 (position 11, …-)) | pKa (Lys9 (position 9, …)) | pKa ([4]; Cu(II)-bound peptide, mononuclear complex, Cu:peptide 1:1 (supplement captions state 0.9:1), peptide 0.5 mM) | pKa ([4]; Zn(II)-bound peptide, mononuclear complex, Zn:peptide 1:1 (supplement captions state 0.9:1), peptide 0.5 mM) | pKa [6]
HNKQEGRDHDKSKGHFHRVVIHHKGGKAH [SgI-29, 29-residue fragment of semenogelin I (Homo sapiens)] | 2.18 | 9.45 | 3.74 |  |  |  |  |  |  |  | 
KQEGRDHDKSKGHFHMIVIHHKGGQAHHG [SgIIA (SgII peptide A), 29-residue fragment of semenogelin II (Homo sapiens)] |  |  |  | 4.26 | 9.47 |  |  |  |  |  | 
KQEGRDHDKSKGHFH [Sg-15, 15-residue fragment common to semenogelin I and semenogelin II (Homo sapiens)] |  |  |  | 4.36 | 7.58 | 9.52 | 10.59 | 10.40 | 6.82 | 6.88 | 2.34
